# In patent publication US20240368668A1, “SUBSTRATES AND BIOMARKERS OF ADAMTS7” (The Broad Institute, Inc., priority 2021, published 2024):
# Square brackets hold non-standard residues; d marks the D form. Ends that are not written are not given here.
# Biological target: T1, mouse ADAMTS7 (Mus musculus, UniProt Q68SA9, E373Q)
# T1 construct: Full-length mouse Adamts7 1-1857 (Uniprot Q68SA9, WT or E373Q catalytic mutant); expressed in transfected cells; host or cells: Human Coronary Artery Smooth Muscle Cells (HCA-SMC, Lonza), adenovirus 50 MOI
# T1 sequence (Q68SA9 221-1657 E373Q): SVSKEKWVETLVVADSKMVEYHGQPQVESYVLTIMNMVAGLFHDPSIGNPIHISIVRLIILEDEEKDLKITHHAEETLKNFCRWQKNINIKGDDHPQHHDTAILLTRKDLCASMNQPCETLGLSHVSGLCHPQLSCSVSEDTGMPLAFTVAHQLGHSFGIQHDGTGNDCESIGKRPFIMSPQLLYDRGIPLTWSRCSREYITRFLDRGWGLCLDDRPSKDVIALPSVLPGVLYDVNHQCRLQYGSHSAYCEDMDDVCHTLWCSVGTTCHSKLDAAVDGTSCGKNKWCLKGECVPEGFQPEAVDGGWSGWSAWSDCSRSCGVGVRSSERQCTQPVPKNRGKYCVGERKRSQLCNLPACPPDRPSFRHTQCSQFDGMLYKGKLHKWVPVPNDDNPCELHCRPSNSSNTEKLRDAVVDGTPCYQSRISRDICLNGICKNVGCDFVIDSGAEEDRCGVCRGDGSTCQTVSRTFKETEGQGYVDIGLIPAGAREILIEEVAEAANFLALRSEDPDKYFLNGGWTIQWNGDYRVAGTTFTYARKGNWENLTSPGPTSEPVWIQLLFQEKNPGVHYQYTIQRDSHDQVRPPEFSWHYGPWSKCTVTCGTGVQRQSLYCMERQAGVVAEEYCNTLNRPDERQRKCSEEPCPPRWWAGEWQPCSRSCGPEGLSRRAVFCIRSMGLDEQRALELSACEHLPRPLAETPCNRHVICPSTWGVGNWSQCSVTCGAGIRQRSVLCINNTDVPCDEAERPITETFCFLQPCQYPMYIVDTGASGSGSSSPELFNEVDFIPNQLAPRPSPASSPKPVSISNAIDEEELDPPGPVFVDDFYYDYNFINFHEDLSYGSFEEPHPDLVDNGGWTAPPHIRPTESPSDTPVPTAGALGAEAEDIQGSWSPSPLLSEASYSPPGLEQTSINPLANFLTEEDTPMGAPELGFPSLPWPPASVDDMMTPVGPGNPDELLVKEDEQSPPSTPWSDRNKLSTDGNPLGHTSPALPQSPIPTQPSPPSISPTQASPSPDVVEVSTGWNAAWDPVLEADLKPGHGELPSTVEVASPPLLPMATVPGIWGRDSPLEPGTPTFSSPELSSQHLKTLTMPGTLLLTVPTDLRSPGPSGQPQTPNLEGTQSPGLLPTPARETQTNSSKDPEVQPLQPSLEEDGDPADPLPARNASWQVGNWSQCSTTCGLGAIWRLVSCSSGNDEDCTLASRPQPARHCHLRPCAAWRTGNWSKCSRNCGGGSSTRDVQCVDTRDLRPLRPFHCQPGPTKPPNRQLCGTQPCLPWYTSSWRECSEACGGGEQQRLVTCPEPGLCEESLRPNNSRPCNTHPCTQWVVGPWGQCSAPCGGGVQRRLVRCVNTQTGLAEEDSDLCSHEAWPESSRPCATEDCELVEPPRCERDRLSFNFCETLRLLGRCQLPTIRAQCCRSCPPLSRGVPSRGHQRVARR
# Experiment: TMT10 TAILS N-terminomics, SMC2 experiment (process replicates, trypsin/AspN digest)
# Assay type: cell-based
# Conditions: SMC2_TAILS HC; log fold change of N-terminal peptide, Ad-mADAMTS7 EQ over Luc
# Excerpt: ADAMTS7 Expression, Cell Culture and Preparation of the Secreted Proteins—Full-length mouse Adamts7 1-1857 (Uniprot Q68SA9, WT or E373Q catalytic mutant) with a carboxyl terminal 3xFLAG tag was used to generate custom adenoviruses as previously described. Adeno-CMV-Luciferase (Ad-Luc) from Vector Biolabs was used as a negative control. Human Coronary Artery Smooth Muscle Cells (HCA-SMC) were obtained from Lonza and expanded in Lonza SmGM-2 media in 15 cm tissue culture plates. Twenty-four hours before media collection, near confluent plates were transduced with 50 MOI adenovirus and switched to Lonza Basal SM media with volumes of 20 ml per 15 cm plate. Expression of the Flag tagged ADAMTS7 was confirmed from the media using western blot and detected using the anti-Flag M2-HRP antibody (Sigma, A8592). Collected media was processed by adding protease inhibitors (1 mM EDTA and 1 mM PMSF) and clarified by 500 g×5 min spin at 4 C to pellet cell debris. Cell media supernatants were then passed through a 0.22 um filter and kept chilled. Processed media was then concentrated 50-100× using 3 kDa Centricon Plus-70 filter unit, spun at 3,500 g×60 min at 4 C. Approximately 10% of the processed, concentrated media was set aside for total secretome proteolytic analysis. The remaining 90% of the processed, concentrated media was buffer exchanged into 50 mM HEPES pH 8.0, 150 mM NaCl (2×50 ml) using the 3 kDa Centricon Plus-70 filter unit and concentrated to >2 mg/ml to serve as input for the TAILS experiment. Secretome and TAILS input samples were stored at −80° C.
# For the first experiment, referred to as SMC1, 120 ml of media from 6×15 cm dishes was pooled from each condition (Luc, WT, EQ) and processed to produce three separate inputs for the TAILS experiment. Luc, WT and EQ inputs from the SMC1 experiment were each divided into triplicate 400 ug samples to generate technical replicate TAILS data. For the second experiment, referred to as SMC2, media was processed separately in triplicate for each condition (Luc1, Luc2, Luc3, WT1, WT2, WT3, EQ1, EQ2, EQ3) using 60 ml of media from 3×15 cm dishes for each process replicate. Inputs from the SMC2 experiment used process replicates of 300 ug each to generate TAILS data. The third experiment used input from cultured Human umbilical vein endothelial cells (HUVEC) from Lifeline Cell Technology grown in VascuLife Media and transduced in Lifeline Basal EC (+bFGF2 10 ng/ml). The HUVEC experiment used the same strategy as the SMC2 experiment, with 40 ml of media from 2×15 cm dishes for each process replicate and used 200 ug each to generate TAILS data. Inputs for process replicate experiments were restricted to the lowest concentration from the 9 parallel samples for SMC2 or HUVEC.
# TMT10 isotopic labeling and negative selection of non-labeled peptides-Sample preparation was performed based on the TAILS protocol from the Overall lab with some modifications. From a single experiment, nine parallel protein samples in 50 mM HEPES pH 8.0, 150 mM NaCl were separately denatured with guanidinium chloride (Sigma, G4505) to reach a final concentration of 2.5M guanidinium chloride and 250 mM HEPES and incubated at 65° C. for 15 min. Reduction was achieved through addition of tris(2-carboxylethyl) phosphine (TCEP) at a final concentration of […] and incubated at 65° C. for 45 min. Alkylation reaction was performed with addition of iodoacetamide (IAA, Sigma, A3221) to a final concentration of 10 mM IAA for 15 min at room temperature in the dark. Following denaturation, reduction and alkylation steps, ten percent of each of the nine parallel protein samples was removed and combined to serve as a pooled reference. Isobaric tags were added to free amine groups using the TMT10plex Isobaric Mass Tagging Kit (ThermoFisher, 90113) with TMT channels randomly assigned to the nine samples and TMT 131 assigned to the pooled reference. […]
row,Substance,logFC.mEQ.over.Luc
1,LTBP1_393 (LTATNFR; listed as Homo sapiens),0.29
2,LTBP1_540 (HQQVIPHVYPVAAKTQLGR; listed as Homo sapiens),0.05
3,LOXL1_219 (VASAGVIYPYQPR; listed as Homo sapiens),0.09
4,LOXL2_37 (FQQPAPEYHQPQAPANVAKIQLR; listed as Homo sapiens),−0.03
5,LOXL2_38 ([code q]QPAPEYHQPQAPANVAKIQLR; not fully specified; listed as Homo sapiens),0.06

# Same assay, conditions: SMC2_TAILS HC; log fold change, mEQ over Luc
row,Substance,logFC.mEQ.over.Luc
1,FBLN2_260 (LGPPAPVQAKAR; listed as Homo sapiens),−0.44
2,GSN_413 (HIANVER; listed as Homo sapiens),0.18
3,HSPG2_2331 (ANLAYPAGSTQPIR; listed as Homo sapiens),−0.19
4,FBN1_53 (LKGPNVCGSR; listed as Homo sapiens),−0.25
5,HSPG2_2333 (LAYPAGSTQPIR; listed as Homo sapiens),−0.22
6,EFEMP1_124 (AVAGPEMQTGR; listed as Homo sapiens),−0.46
7,CCDC80_66 (LEEPNLQPLQR; listed as Homo sapiens),−0.13
8,FN1_1656 (SSSPVTGYR; listed as Homo sapiens),−0.65
9,IGFBP3_31 (SAGLGPVVR; listed as Homo sapiens),−0.31
10,LOX_124 (WFQAGYSTSR; listed as Homo sapiens),−0.11
11,FLNA_1285 (LTQTGGPHVKAR; listed as Homo sapiens),−1.35
12,FBN1_29 (LEAGNVKETR; listed as Homo sapiens),−0.24
13,FN1_40 (QSPVAVSQSKPGCYDNGKHYQINQQWER; listed as Homo sapiens),−0.06
14,EFEMP1_125 (VAGPEMQTGR; listed as Homo sapiens),−0.99
15,FBLN2_259 (ALGPPAPVQAKAR; listed as Homo sapiens),−0.27
16,AEBP1_37 (FLEGFLSELEPEPR; listed as Homo sapiens),−0.27
17,IGFBP7_101 (AAGGPGVSGVCVCKSR; listed as Homo sapiens),−0.04
18,LOX_58 (LSLGSQYQPQR; listed as Homo sapiens),−0.08
19,FN1_36 (MVQPQSPVAVSQSKPGCYDNGKHYQINQQWER; listed as Homo sapiens),−0.11
20,LOX_126 (QAGYSTSR; listed as Homo sapiens),−0.26
21,IGFBP3_32 (AGLGPVVR; listed as Homo sapiens),−0.51
22,HSPG2_275 (LLPGSVR; listed as Homo sapiens),−0.36
23,LOX_123 (HWFQAGYSTSR; listed as Homo sapiens),0.00
24,FN1_1143 (LTPGVEYVYTIQVLR; listed as Homo sapiens),−0.49
